Reference: patent publication US20100136009A1 (DIADEXUS, published 2010)

T1: native Ovr110 protein on tumor cells (ZR-75-1, SKBR3, RL95.2, OVCAR3) (human, UniProt Q7Z7D3 25-282)
T1 construct: whole, on cells; Endogenous protein of Ovr110-positive tumor cell lines; also called B7-H4; B7x
T1 sequence (looked up): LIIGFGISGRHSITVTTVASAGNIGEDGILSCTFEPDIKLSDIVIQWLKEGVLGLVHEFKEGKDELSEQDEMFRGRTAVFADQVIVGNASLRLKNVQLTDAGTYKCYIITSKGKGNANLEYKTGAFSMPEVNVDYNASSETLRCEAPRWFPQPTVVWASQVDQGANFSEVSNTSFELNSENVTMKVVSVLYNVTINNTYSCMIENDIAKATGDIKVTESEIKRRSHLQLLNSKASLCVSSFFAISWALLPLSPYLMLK

T2: recombinant Ovr110-hFc encoded by Ovr110 Construct 2 (human)
T2 construct: Captured on plates by goat anti-human IgG Fc; also called Ovr110-hFc (with TM)
T2 chain: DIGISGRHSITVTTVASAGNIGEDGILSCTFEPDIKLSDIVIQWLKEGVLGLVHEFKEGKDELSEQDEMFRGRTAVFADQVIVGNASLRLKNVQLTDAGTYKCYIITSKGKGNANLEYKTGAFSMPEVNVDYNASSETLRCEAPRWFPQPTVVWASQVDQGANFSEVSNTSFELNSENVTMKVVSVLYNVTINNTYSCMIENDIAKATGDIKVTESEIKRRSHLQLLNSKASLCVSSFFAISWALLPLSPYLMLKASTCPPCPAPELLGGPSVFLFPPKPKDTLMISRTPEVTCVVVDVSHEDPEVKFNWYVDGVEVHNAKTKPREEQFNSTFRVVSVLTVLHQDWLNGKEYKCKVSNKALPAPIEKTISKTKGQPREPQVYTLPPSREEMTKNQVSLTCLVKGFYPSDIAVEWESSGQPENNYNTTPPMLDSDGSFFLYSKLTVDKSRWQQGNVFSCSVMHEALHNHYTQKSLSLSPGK

T3: Ovr110 (amino acids 1-282; Ovr110 Construct 1 without the 6-His tag) expressed on transiently transfected … (human, UniProt Q7Z7D3 25-282)
T3 construct: signal peptide not removed here
T3 sequence: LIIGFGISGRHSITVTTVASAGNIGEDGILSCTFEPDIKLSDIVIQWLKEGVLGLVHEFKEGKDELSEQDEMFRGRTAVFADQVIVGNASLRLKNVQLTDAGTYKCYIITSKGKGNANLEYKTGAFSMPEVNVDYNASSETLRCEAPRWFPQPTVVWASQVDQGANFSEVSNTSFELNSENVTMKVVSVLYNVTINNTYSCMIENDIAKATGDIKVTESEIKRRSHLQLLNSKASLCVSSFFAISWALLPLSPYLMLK


Tests used:
[1] = biological target: transferrin receptor (TfnR, CD71) on cells (UniProt P02786); assay: cell-based or functional assay
[2] = biological target: T1, native Ovr110 protein on tumor cells …; assay: flow cytometry; purified MAb; ZR-75-1 cells
Description: (§1) Cells from cultures selected for MAb staining were aliquoted at 0.5-1.0×10⁶ cells/well in 96-well v-bottom plates (VWR) and centrifuged for 2 minutes at 1500 rpm. Supernatants were aspirated and plates briefly shaken on a vortex mixer to resuspend the cells, then 200 uL of DPBS/3% FBS/0.01% Na Azide (FACS buffer) was added to each well. Centrifugation and aspiration was repeated, then 25 uL of sequential dilutions of hybridoma supernatant or purified MAb was added to the cells. Plates were stored on ice for 15 min., then washed and centrifuged as above, in 200 uL of FACS buffer. This washing procedure was repeated twice and then 25 uL of phycoerythrin (PE) conjugated donkey anti-mouse IgG Fc antibody (Jackson Immunoresearch Laboratories) were added to cells. After 15 minutes on ice the cells were washed twice, as above and then resuspended in 250 uL of FACS buffer for analysis on the cell sorter or flow cytometer. In certain cases, for storage overnight at 4° C. prior to analysis, 133 uL of FACS buffer and 67 uL of 1% paraformaldehyde/DPBS was added to each well, for fixation, then the volume was increased to 250 uL with DPBS. Stained cells were analyzed on an Elite fluorescent activated cell sorter (FACS) (Beckman-Coulter).

[3] = biological target: T2, recombinant Ovr110-hFc encoded by …; assay: competition ELISA; row = unlabeled blocking MAb; competitor = biotinylated detecting MAb Q12.2
Description: (§2) Recombinant Ovr110 was coated on plates as described in the Sandwich ELISA protocol above. Wells were filled with 50 uL unlabeled antibody (“blocking antibody”) at 20 ug/mL in TBST/BSA and incubated for 30 min. Fifty uL/well biotinylated antibody (“detecting antibody”) at 2 ug/mL was added and plates incubated for 15 min. […] After 30 min incubation, plates were washed with TBST and 100 uL/well of HRP substrate 3,3′,5,5′-tetramethyl benzidine (#S1599; Dako Cytomation, Carpinteria, Calif.) were added. The reaction was stopped by adding 100 uL 1N hydrochloric acid. The enzymatic reaction was quantified by measuring the solution's absorbance at 450 nm wavelength.
(§3) Each antibody was tested as both a blocking and detecting antibody, in all possible combinations.

[4] = biological target: T2, recombinant Ovr110-hFc encoded by …; assay: competition ELISA; row = unlabeled blocking MAb; competitor = biotinylated detecting MAb Q27.4
Description: as §2, §3

[5] = biological target: T2, recombinant Ovr110-hFc encoded by …; assay: competition ELISA; row = unlabeled blocking MAb; competitor = biotinylated detecting MAb Q11.12.3
Description: as §2, §3

[6] = biological target: T2, recombinant Ovr110-hFc encoded by …; assay: competition ELISA; row = unlabeled blocking MAb; competitor = biotinylated detecting MAb Q19.6
Description: as §2, §3

[7] = biological target: T1, native Ovr110 protein on tumor cells …; assay: flow cytometry; hybridoma supernatant; SKBR3 cells
Description: The following tumor cell lines were used: SKBR3, ZR-75-1 and HeLa.
as §1

[8] = biological target: T2, recombinant Ovr110-hFc encoded by …; assay: competition ELISA; row = unlabeled blocking MAb; competitor = biotinylated detecting MAb Q15.2
Description: as §2, §3

[9] = biological target: T1, native Ovr110 protein on tumor cells …; assay: flow cytometry; purified MAb; SKBR3 cells
Description: as §1

[10] = biological target: T1, native Ovr110 protein on tumor cells …; assay: cell-based or functional assay
[11] = biological target: T1, native Ovr110 protein on tumor cells …; assay: cell-based or functional assay; remark: listed apart in the source
[12] = biological target: T3, Ovr110 (amino acids 1-282; Ovr110 …); assay: flow cytometry; hybridoma supernatant; Ovr110-transfected 293F cells
Description: 48 hours post-transfection, cells were washed once with 10 ml Ca⁺²/Mg⁺²free DPBS and then 7 ml of warm (37° C.) Cellstripper (Mediatech, Herndon, Va.) was added per 150 cm² flask. The cells were then incubated for 5 minutes at 37° C. with tapping of the flask to remove tightly attached cells. The cells were removed and pipetted several times to break aggregates, then immediately placed in DMEM/10% FBS/5 mM sodium butyrate. The cells were then centrifuged down for 5 minutes at 1300 rpm and resuspended in DMEM/10% FBS/5 mM sodium butyrate. The cells were incubated at 37° C. for a 30 min recovery period. Prior to staining, viability of the cells was measured using Guava Viacount (Guava Cytometers, Foster City, Calif.) and cultures with >90% viability were selected for staining with MAbs.
Cells from cultures selected for MAb staining were aliquoted at 0.5-1.0×10⁶ cells/well in 96-well v-bottom plates (VWR) and centrifuged for 2 minutes at 1500 rpm. Supernatants were aspirated and plates briefly shaken on a vortex mixer to resuspend the cells, then 200 uL of DPBS/3% FBS/0.01% Na Azide (FACS buffer) was added to each well. Centrifugation and aspiration was repeated, then 25 uL of sequential dilutions of hybridoma supernatant or purified MAb was added to the cells. Plates were stored on ice for 15 min., then washed and centrifuged as above, in 200 uL of FACS buffer. This washing procedure was repeated twice and then 25 uL of phycoerythrin (PE) conjugated donkey anti-mouse IgG Fc antibody (Jackson Immunoresearch Laboratories) were added to cells. After 15 minutes on ice the cells were washed twice, as above and then resuspended in 250 uL of FACS buffer for analysis on the cell sorter or flow cytometer.

[13] = biological target: T2, recombinant Ovr110-hFc encoded by …; assay: competition ELISA; row = unlabeled blocking MAb; competitor = biotinylated detecting MAb Q23.6
Description: as §2, §3

[14] = biological target: T1, native Ovr110 protein on tumor cells …; assay: flow cytometry titration of fluorescein-labeled MAb on ZR75-1 cells; one-site fit
Description: Labeled antibodies were incubated with 100,000 ZR75-1 cells in FACS buffer for 2 hours at room temperature. […] Cells were washed twice in FACS buffer to remove unbound antibody and the mean fluorescence intensity (MFI) of cells was analyzed by flow cytometry. MFI values generated by a negative control antibody were subtracted from MFI values generated by anti-Ovr110 antibodies at equivalent antibody concentrations. Binding curves (net MFI values plotted against the antibody concentration) were analyzed with the software Prism (GraphPad). The dissociation constant KD was calculated by nonlinear regression assuming a one-site binding model.

[15] = biological target: T3, Ovr110 (amino acids 1-282; Ovr110 …); assay: flow cytometry; purified MAb; Ovr110-transfected 293F cells
Description: The cells were then incubated for 5 minutes at 37° C. with tapping of the flask to remove tightly attached cells. The cells were removed and pipetted several times to break aggregates, then immediately placed in DMEM/10% FBS/5 mM sodium butyrate. The cells were then centrifuged down for 5 minutes at 1300 rpm and resuspended in DMEM/10% FBS/5 mM sodium butyrate. The cells were incubated at 37° C. for a 30 min recovery period. Prior to staining, viability of the cells was measured using Guava Viacount (Guava Cytometers, Foster City, Calif.) and cultures with >90% viability were selected for staining with MAbs.
as §1

[16] = biological target: T2, recombinant Ovr110-hFc encoded by …; assay: competition ELISA; row = unlabeled blocking MAb; competitor = biotinylated detecting MAb A87.1
Description: as §2, §3

[17] = biological target: T2, recombinant Ovr110-hFc encoded by …; assay: competition ELISA; row = unlabeled blocking MAb; competitor = biotinylated detecting MAb Q3.1
Description: as §2, §3

[18] = biological target: T2, recombinant Ovr110-hFc encoded by …; assay: competition ELISA; row = unlabeled blocking MAb; competitor = biotinylated detecting MAb C6.3
Description: as §2, §3

Sequence of transferrin receptor (TfnR, CD71) on cells (P02786 whole entry): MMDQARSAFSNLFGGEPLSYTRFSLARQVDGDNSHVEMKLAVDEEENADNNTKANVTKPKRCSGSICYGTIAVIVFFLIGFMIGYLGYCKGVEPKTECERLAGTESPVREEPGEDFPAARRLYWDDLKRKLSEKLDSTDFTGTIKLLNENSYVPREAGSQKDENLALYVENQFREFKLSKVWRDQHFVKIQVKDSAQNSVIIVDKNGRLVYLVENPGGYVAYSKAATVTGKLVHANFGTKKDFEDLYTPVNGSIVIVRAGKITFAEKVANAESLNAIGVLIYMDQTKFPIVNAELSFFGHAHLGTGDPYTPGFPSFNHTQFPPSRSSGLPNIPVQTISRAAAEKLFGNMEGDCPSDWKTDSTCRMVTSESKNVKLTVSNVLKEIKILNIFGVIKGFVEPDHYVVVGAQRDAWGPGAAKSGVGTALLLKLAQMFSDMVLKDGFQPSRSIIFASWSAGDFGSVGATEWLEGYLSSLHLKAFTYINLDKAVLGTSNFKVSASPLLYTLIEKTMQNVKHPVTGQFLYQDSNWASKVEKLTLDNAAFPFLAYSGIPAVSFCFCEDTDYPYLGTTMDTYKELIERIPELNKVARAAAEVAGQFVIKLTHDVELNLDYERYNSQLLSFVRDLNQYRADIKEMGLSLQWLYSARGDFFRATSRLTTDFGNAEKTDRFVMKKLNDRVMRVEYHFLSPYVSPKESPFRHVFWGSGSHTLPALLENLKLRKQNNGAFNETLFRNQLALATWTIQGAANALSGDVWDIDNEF

| Molecule | % Cells Positive [2] | MFI [2] | signal/noise ratio [3] | signal/noise ratio [4] | signal/noise ratio [5] | signal/noise ratio [6] | % Cells Positive [7] | Mean Fluorescence Intensity (MFI) [7] | signal/noise ratio [8] | % Cells Positive [9] | MFI [9] | % Cells Positive [12] | Mean Fluorescence Intensity (MFI) [12] | signal/noise ratio [13] | Kd [14] | % Cells Positive [15] | MFI [15] | signal/noise ratio [16] | signal/noise ratio [17] | signal/noise ratio [18] | other results |
| --- | --- | --- | --- | --- | --- | --- | --- | --- | --- | --- | --- | --- | --- | --- | --- | --- | --- | --- | --- | --- | --- |
| anti-TfnR MAb 5E9 (ATCC) (antibody) | – | – | – | – | – | – | – | – | – | – | – | – | – | – | – | – | – | – | – | – | Percentage growth compared to wells with media alone; HCT116; MAb 2.0 ug/mL with 1.0 ug/mL mAb-ZAP [1]: 24.9%; Percentage growth compared to wells with media alone; SKBR3; MAb 0.4 ug/mL with 1.0 ug/mL mAb-ZAP [1]: 18.4%; Percentage growth compared to wells with media alone; SKBR3; MAb 2.0 ug/mL with 1.0 ug/mL mAb-ZAP [1]: 44.6%; Percentage growth compared to wells with media alone; ZR-75-1; MAb 0.4 ug/mL with 1.0 ug/mL mAb-ZAP [1]: 35%; Percentage growth compared to wells with media alone; ZR-75-1; MAb 2.0 ug/mL with 1.0 ug/mL mAb-ZAP [1]: 49.3% |
| Ovr110.Q23 (antibody, IgG1, V domains shown, Mouse hybridoma MAb; also called Q23.6) VH: QVQLQQSGAELMKPGASVKISCKATGYTFSSYWIEWVKQRPGHGLEWIGEILPGSGITKYNEKFKTKATFTADTSSNTAYMQLSSLTSEDSAVYYCARYYFGSVNFYFDCWGQGTTLTVSS VL: QAVVTQESALTTSPGETVTLTCRSSTGAVTTSNYANWVQEKPDHLFTGLIGGTDNRPPGVPARFSGSLIGDKAALTITGTQTEDEAIYFCALWYSNHWVFGGGTKLTVLG | 92.7% | 3.25 | 2.8 | 2.2 | 5.2 | 6 | 97.1% | 4.35 | 2.9 | 93.9% | 3.85 | 94.7% | 17.9 | 1 | 5.66 nM | 92.6% | 4.98 | 6.7 | 1.4 | 1.2 | Percentage growth compared to wells with media alone; SKBR3; MAb 0.4 ug/mL with 1.0 ug/mL mAb-ZAP [10]: 68.9%; Percentage growth compared to wells with media alone; SKBR3; MAb 2.0 ug/mL with 1.0 ug/mL mAb-ZAP [10]: 73.6%; Percentage growth compared to wells with media alone; ZR-75-1; MAb 0.4 ug/mL with 1.0 ug/mL mAb-ZAP [11]: 37.5%; Percentage growth compared to wells with media alone; ZR-75-1; MAb 2.0 ug/mL with 1.0 ug/mL mAb-ZAP [11]: 45.5% |
| Ovr110.Q27 (antibody, IgG1, V domains shown, Mouse hybridoma MAb; also called Q27.4; Q27.2) VH: QVQPQQSGAELARPGASVKLSCKASGYTFTTYWMQWVKQRPGQGLEWIGAIYPGDGDTRYTQKFKGKATLTADKSSSTAYMQLSSLASEDSAVYYCAINWGYAMDYWGQGTSVTVSS VL: DIVLTQSHKIMSTSVGDRVSITCKASQDVRTAVAWYQQKPGQSPKLLIKSASYRYTGVPDRFSGSGSGTDFTFTISSVQAEDLAVYYCQQHYSNPTFGGGTKLEIKR | 93.3% | 2.92 | 3.1 | 1 | 5.5 | 6.5 | 87.7% | 1.48 | 11.8 | 94.8% | 3.9 | 91.8% | 6.09 | 1 | 4.76 nM | 95.2% | 5.48 | 6.7 | 1.4 | 1.2 | Percentage growth compared to wells with media alone; SKBR3; MAb 0.4 ug/mL with 1.0 ug/mL mAb-ZAP [10]: 68.9%; Percentage growth compared to wells with media alone; SKBR3; MAb 2.0 ug/mL with 1.0 ug/mL mAb-ZAP [10]: 73.6%; Percentage growth compared to wells with media alone; ZR-75-1; MAb 0.4 ug/mL with 1.0 ug/mL mAb-ZAP [11]: 60.6%; Percentage growth compared to wells with media alone; ZR-75-1; MAb 2.0 ug/mL with 1.0 ug/mL mAb-ZAP [11]: 69.5% |
| Ovr110.Q19 (antibody, IgG1, V domains shown, Mouse hybridoma MAb; also called Q19.6; Ovr110.Q19.6) VH: DVLLQESGPGLVKASQSLSLTCSVTGYSITSGYFWNWIRQFPGNKLEWMGYISYDGGNSYNPSLKNRISITRDTSKNQFFLRMKSVTAEDTATYYCARKALWLRFDYWGQGTTLTVSS VL: EIVLTQSPAIMSVYLGEKVTMTCSASLSVSYMHWYQQKSSTSPKLWIYDTSKVASGVPGRFSGSGSGNSYSLTISSMEAEDVATYYCFQGSGYPFTFGSGTKLEIKR | 95.6% | 4.11 | 1.1 | 4.7 | 1 | 1 | 98.9% | 10.4 | 11.7 | 95.2% | 4.64 | 95.7% | 24.5 | 4.8 | 0.53 nM | 91.9% | 5.25 | 6.6 | 1.3 | 1.2 | Percentage growth compared to wells with media alone; SKBR3; MAb 0.4 ug/mL with 1.0 ug/mL mAb-ZAP [10]: 49.8%; Percentage growth compared to wells with media alone; SKBR3; MAb 2.0 ug/mL with 1.0 ug/mL mAb-ZAP [10]: 25%; Percentage growth compared to wells with media alone; ZR-75-1; MAb 0.4 ug/mL with 1.0 ug/mL mAb-ZAP [11]: 28.1%; Percentage growth compared to wells with media alone; ZR-75-1; MAb 2.0 ug/mL with 1.0 ug/mL mAb-ZAP [11]: 46.5% |
| Ovr110.Q11 (antibody, V domains shown, Mouse hybridoma MAb; also called Q11.12.3; Ovr110.Q11.12.3) VH: DVQLQESGPGLVKPSQSLSLTCSVTGYSITSGYFWSWIRQFPGNKLEWMGFISYDGTNSYNPSLKNRISITRDTSKNQFFLRLNSVTKEDTATYYCARKLLWLRFDYWGQGTTLTVSS VL: ENVLTQSPAIMSASPGEKVTMTCSASSSVSYMHWYQQKSSTSPKLWIYDTSKLASGVPGRFSGSGSGNSYSLTISSMEAEDVATYYCFQGSGYPFTFGSGTKLEIKR | 96.4% | 4.68 | 1 | 4.7 | 1 | 1 | 98.7% | 9.71 | 11.7 | 98.4% | 5.95 | 95.7% | 26 | 4.5 | 0.74 nM | 93.8% | 5.47 | 6.4 | 1.3 | 1.2 | – |
| Ovr110.Q12 (antibody, IgG1, V domains shown, Mouse hybridoma MAb; also called Q12.2; Ovr110.Q12.2) VH: QVQLQQPGAELVKPGATVKLSCKTSGYTFTSYWMHWVKQRPGQGLEWIGEIDPSDSYTNYNQKFKGKATLTVDTSSTTAYMQLSSLTSEDSAVYYCAREYGNNDAMDYWGQGTSVTVSS VL: QIVLTQSPAIMSASPGEKVTMTCSASSGISYMHWYQQKPGTTPKRWIYDASKLASGVPSRFSGSGSGTSYSLTISSMEAEDAATYYCHQRRSYPFTFGSGTKLEIKR | 94.1% | 3.76 | 1 | 4.3 | 1.2 | 1.1 | 98.8% | 12 | 11.6 | 95.3% | 4.86 | 96.6% | 31.8 | 3.6 | 0.64 nM | 94.3% | 5.25 | 6.7 | 1.4 | 1.2 | – |
